From patent publication US9127260B2

Key:
[1] = target: Natuphos (Natuphos 10000L, BASF), commercial phytase
[2] = target: T1, synthetic phytase Fus5#2 (mature) (synthetic fusion of Hafnia sp. LU11047 phytase and Yersinia mollaretii ATCC 43969 phytase fragments)
T1 sequence: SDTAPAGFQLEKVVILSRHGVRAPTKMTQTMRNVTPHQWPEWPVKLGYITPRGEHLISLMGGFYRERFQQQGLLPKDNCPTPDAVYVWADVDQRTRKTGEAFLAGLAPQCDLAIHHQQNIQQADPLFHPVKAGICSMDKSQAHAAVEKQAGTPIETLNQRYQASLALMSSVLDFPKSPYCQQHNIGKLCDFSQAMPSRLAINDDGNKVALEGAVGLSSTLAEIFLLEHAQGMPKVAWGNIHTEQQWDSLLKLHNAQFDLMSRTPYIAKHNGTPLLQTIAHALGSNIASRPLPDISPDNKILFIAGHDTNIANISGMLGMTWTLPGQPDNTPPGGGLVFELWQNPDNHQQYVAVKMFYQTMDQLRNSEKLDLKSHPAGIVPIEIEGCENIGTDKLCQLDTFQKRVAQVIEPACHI

Substance: pepsin (Sigma P-7000, 445 U/mg) (from UniProt P00791) (enzyme)
- Stability to pepsin (residual phytase activity after 30 min at 37 C with 10 mg/ml pepsin, pH 2, relative to a pH 5.5 reference) [1]: 20%
- Stability to pepsin (residual phytase activity after 30 min at 37 C with 10 mg/ml pepsin, pH 2, relative to a pH 5.5 reference) [2]: 1%
